# Laboratory results reported in patent US20180236053A1 (CELLECTIS, published 2018).
# B1: 13F11-V1 CAR (other)
# chain: QIQLVQSGPELKKPGETVKISCKASGYTFKKYGMNWVKQAPGKGLKWMGWINTNTGEPTYAEEFKGRFAFSLETSASTAYLQINNLKNEDTATYFCARWYYGSTPSSYTMDYWGQGTSVTVSSGGGGSGGGGSGGGGSETTVTQSPASLSVATGEKVTIRCITSTDIDDDMNWYQQKPGEPPKVLISEGNTLRPGVPSRFSSSGYGTDFVFTIENTLSEDVADYYCLQSNNMPYTFGGGTKLEIKGLAVSTISSFFPPGYQIYIWAPLAGTCGVLLLSLVITLYCKRGRKKLLYIFKQPFMRPVQTTQEEDGCSCRFPEEEEGGCELRVKFSRSADAPAYQQGQNQLYNELNLGRREEYDVLDKRRGRDPEMGGKPRRKNPQEGLYNELQKDKMAEAYSEIGMKGERRRGKGHDGLYQGLSTATKDTYDALHMQALPPR
# B2: 13F11-V3 CAR (other)
# chain: QIQLVQSGPELKKPGETVKISCKASGYTFKKYGMNWVKQAPGKGLKWMGWINTNTGEPTYAEEFKGRFAFSLETSASTAYLQINNLKNEDTATYFCARWYYGSTPSSYTMDYWGQGTSVTVSSGGGGSGGGGSGGGGSETTVTQSPASLSVATGEKVTIRCITSTDIDDDMNWYQQKPGEPPKVLISEGNTLRPGVPSRFSSSGYGTDFVFTIENTLSEDVADYYCLQSNNMPYTFGGGTKLEIKEPKSPDKTHTCPPCPAPPVAGPSVFLFPPKPKDTLMIARTPEVTCVVVDVSHEDPEVKFNWYVDGVEVHNAKTKPREEQYNSTYRVVSVLTVLHQDWLNGKEYKCKVSNKALPAPIEKTISKAKGQPREPQVYTLPPSRDELTKNQVSLTCLVKGFYPSDIAVEWESNGQPENNYKTTPPVLDSDGSFFLYSKLTVDKSRWQQGNVFSCSVMHEALHNHYTQKSLSLSPGKIYIWAPLAGTCGVLLLSLVITLYCKRGRKKLLYIFKQPFMRPVQTTQEEDGCSCRFPEEEEGGCELRVKFSRSADAPAYQQGQNQLYNELNLGRREEYDVLDKRRGRDPEMGGKPRRKNPQEGLYNELQKDKMAEAYSEIGMKGERRRGKGHDGLYQGLSTATKDTYDALHMQALPPR
# B3: 16B5-V1 CAR (other)
# chain: QAYLQQSGAELVRSGASVKMSCKASGYTFTSYNLHWVKQTPGQGLEWIGYIYPGNGGTNYNQKFKGKATLTADTSSSTAYMQISSLTSEDSAVYFCARGGIYYYGSSLDYWGQGTTLTVSSGGGGSGGGGSGGGGSNIVLTQSPASLAVSLGQRATISCRASESVDNYGTTFMYWYQQKPGQPPKLLIYLASNLESGVPARFSGSGSGTDFTLTIDPVEADDAATYYCQQNKEDPWTFGGGTKLEIKGLAVSTISSFFPPGYQIYIWAPLAGTCGVLLLSLVITLYCKRGRKKLLYIFKQPFMRPVQTTQEEDGCSCRFPEEEEGGCELRVKFSRSADAPAYQQGQNQLYNELNLGRREEYDVLDKRRGRDPEMGGKPRRKNPQEGLYNELQKDKMAEAYSEIGMKGERRRGKGHDGLYQGLSTATKDTYDALHMQALPPR
# B4: 16B5-V2 CAR (other)
# chain: QAYLQQSGAELVRSGASVKMSCKASGYTFTSYNLHWVKQTPGQGLEWIGYIYPGNGGTNYNQKFKGKATLTADTSSSTAYMQISSLTSEDSAVYFCARGGIYYYGSSLDYWGQGTTLTVSSGGGGSGGGGSGGGGSNIVLTQSPASLAVSLGQRATISCRASESVDNYGTTFMYWYQQKPGQPPKLLIYLASNLESGVPARFSGSGSGTDFTLTIDPVEADDAATYYCQQNKEDPWTFGGGTKLEIKTTTPAPRPPTPAPTIASQPLSLRPEACRPAAGGAVHTRGLDFACDIYIWAPLAGTCGVLLLSLVITLYCKRGRKKLLYIFKQPFMRPVQTTQEEDGCSCRFPEEEEGGCELRVKFSRSADAPAYQQGQNQLYNELNLGRREEYDVLDKRRGRDPEMGGKPRRKNPQEGLYNELQKDKMAEAYSEIGMKGERRRGKGHDGLYQGLSTATKDTYDALHMQALPPR
# Molecular target: CD38 antigen on the surface of cells (U266 CD38+, MOLP8, Daudi, T-ALL cell lines, activated T cells) (human, UniProt P28907 1-300)
# Assay: cell-based or functional assay
row,ratio of degranulation against U266 CD38+ and U266 CD38-,Binder
1,> 2 ratio,B1
2,> 2 ratio,B2
3,> 2 ratio,B3
4,> 2 ratio,B4
